For one substance, EGFP donor fluorescence lifetime and FRET efficiency results are on record in paper PMC8861016.

This test has as its target LRP6mcherry2 (UniProt O75581). The experiment in a line: FRET or BRET; FRET-based FLIM (EGFP donor lifetime) on live HEK293T cells stably expressing CD44EGFP and LRP6mcherry2, induced with Wnt3a CM 1 h before analysis.
UniProt O75581, sequence (O75581 20-1613): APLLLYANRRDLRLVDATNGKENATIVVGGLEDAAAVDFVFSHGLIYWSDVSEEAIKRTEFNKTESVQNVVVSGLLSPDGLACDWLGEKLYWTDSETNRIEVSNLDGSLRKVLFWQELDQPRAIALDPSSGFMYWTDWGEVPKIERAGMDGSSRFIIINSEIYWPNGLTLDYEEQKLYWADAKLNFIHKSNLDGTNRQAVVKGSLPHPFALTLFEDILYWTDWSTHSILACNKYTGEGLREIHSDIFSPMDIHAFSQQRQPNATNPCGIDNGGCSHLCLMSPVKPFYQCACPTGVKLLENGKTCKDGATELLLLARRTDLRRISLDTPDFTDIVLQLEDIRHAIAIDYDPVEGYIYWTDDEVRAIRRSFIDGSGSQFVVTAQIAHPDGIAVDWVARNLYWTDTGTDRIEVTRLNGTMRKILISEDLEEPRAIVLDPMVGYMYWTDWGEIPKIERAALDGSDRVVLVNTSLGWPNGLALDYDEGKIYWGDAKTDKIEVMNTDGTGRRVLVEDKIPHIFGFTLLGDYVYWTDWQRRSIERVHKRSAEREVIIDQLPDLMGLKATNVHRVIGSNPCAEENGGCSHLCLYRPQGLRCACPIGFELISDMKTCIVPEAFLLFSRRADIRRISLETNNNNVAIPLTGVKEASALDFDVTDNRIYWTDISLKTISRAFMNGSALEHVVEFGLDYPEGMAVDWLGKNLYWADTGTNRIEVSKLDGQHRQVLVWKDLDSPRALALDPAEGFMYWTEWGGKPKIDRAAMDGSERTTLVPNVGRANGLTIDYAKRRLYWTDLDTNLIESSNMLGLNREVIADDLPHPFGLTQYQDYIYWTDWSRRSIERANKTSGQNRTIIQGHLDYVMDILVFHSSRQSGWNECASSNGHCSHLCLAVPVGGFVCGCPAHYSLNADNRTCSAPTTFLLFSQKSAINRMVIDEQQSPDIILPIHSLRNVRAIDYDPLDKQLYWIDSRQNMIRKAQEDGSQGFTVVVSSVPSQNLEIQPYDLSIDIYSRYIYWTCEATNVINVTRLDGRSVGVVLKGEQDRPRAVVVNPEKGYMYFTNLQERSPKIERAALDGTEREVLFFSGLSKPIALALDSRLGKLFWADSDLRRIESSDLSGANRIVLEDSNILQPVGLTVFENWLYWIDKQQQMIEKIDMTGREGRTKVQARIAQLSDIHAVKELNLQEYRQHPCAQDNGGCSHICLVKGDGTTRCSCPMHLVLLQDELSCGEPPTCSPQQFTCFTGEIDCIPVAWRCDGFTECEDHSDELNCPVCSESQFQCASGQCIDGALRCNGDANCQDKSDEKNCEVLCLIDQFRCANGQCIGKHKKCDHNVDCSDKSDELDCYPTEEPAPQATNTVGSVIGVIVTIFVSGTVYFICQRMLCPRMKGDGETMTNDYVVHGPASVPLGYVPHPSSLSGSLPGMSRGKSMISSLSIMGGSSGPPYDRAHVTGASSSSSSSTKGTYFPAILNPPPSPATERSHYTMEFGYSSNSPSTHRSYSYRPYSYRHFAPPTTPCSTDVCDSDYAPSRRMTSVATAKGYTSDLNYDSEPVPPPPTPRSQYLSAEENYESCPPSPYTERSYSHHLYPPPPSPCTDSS

In turn, “CD44EGFP (from UniProt P16070 21-742) (receptor)” yielded an EGFP donor fluorescence lifetime of 2450 ps and an FRET efficiency of 7.5%.
